# Test results as given in patent US20260028391A1 (HUMABS BIOMED, published 2026).
# Columns and labels:
# biot-RSV-F wt = biot-RSV-F wt (respiratory syncytial virus (RSV)); assay: BLI (Octet), biotinylated F on SA sensors, mAb 5 µg/ml
# [1] = target: fusion glycoprotein (F) of MPV A GFP (Tables 41 and 43) (metapneumovirus A); assay: cell-based or functional assay
# [2] = target: fusion glycoprotein (F) of RSV B GFP (Tables 41 and 42) (respiratory syncytial virus B); assay: cell-based or functional assay
# [3] = target: fusion glycoprotein (F) of RSV A GFP (Tables 41 and 42) (respiratory syncytial virus A); assay: cell-based or functional assay
# [4] = target: RSV fusion glycoprotein (RSV-F) (respiratory syncytial virus); assay: biolayer interferometry (BLI), rIgG1 with M428L/N434S
# [5] = target: fusion glycoprotein (F) of the MPV (non-D280N) used in the GFP-based neutralization assay of Table 23 (metapneumovirus); assay: cell-based or functional assay
# [6] = target: fusion glycoprotein (F) of the RSV used in the GFP-based neutralization assay of Table 23 (respiratory syncytial virus); assay: cell-based or functional assay
# [7] = target: RSV A fusion glycoprotein (F), virus of the neutralisation assays of Tables 54 and 57 (RSV A); assay: cell-based or functional assay
# RSV-A F = target: T1, RSV-A F (RSV A); assay: BLI
# T1 construct: also called RSV F A
# RSV-B F = target: T2, RSV-B F (RSV B); assay: BLI
# T2 construct: also called RSV F B
# RSV F B, B Ref = target: T3, RSV F B, B Ref (RSV B); assay: FACS, % binding to RSV F B variants
# T3 construct: whole, on cells
# RSV F B K68N-N201S = target: T4, RSV F B K68N-N201S (RSV B); assay: FACS, % binding to RSV F B variants
# T4 construct: whole, on cells
# RSV F B N208S = target: T5, RSV F B N208S (RSV B); assay: FACS, % binding to RSV F B variants
# T5 construct: whole, on cells; also called mutant N208S
# RSV F B S443P = target: T6, RSV F B S443P (RSV B); assay: FACS, % binding to RSV F B variants
# T6 construct: whole, on cells; also called mutant S443P
# RSV F B K68N-N208S = target: T7, RSV F B K68N-N208S (RSV B); assay: FACS, % binding to RSV F B variants
# T7 construct: whole, on cells
# RSV F B N201S = target: T8, RSV F B N201S (RSV B); assay: FACS, % binding to RSV F B variants
# T8 construct: whole, on cells
# [8] = target: fusion glycoprotein of the MPV D280 used in the neutralization assay of Example 3 (metapneumovirus (strain )); assay: cell-based or functional assay
# [9] = target: fusion glycoprotein of the RSV used in the neutralization assay of Example 1 (respiratory syncytial virus (strain not …)); assay: cell-based or functional assay
# RSV F B N208D = target: T9, RSV F B N208D (RSV B); assay: FACS, % binding to RSV F B variants
# T9 construct: whole, on cells
# RSV F A G446E = target: T10, RSV F A G446E (RSV A, strain A2, UniProt P03420 26-574); assay: FACS, % binding to RSV F A variants
# T10 construct: whole, on cells
# RSV F A, A2 Ref = target: T11, RSV F A, A2 Ref (RSV A, strain A2, UniProt P03420 26-574); assay: FACS, % binding to RSV F A variants
# T11 construct: whole, on cells
# RSV F A S443P-K445N = target: T12, RSV F A S443P-K445N (RSV A, strain A2, UniProt P03420 26-574); assay: FACS, % binding to RSV F A variants
# T12 construct: whole, on cells
# RSV F A L203I = target: T13, RSV F A L203I (RSV A, strain A2, UniProt P03420 26-574); assay: FACS, % binding to RSV F A variants
# T13 construct: whole, on cells
binder,measurement,setting,value
"RSD5-FR-GL-rIgG1 (antibody, V domains shown, Germline-reverted version of RSD5 (framework regions), recombinant IgG1; also called RSD5-FR-GL-rlgG1) VH: QVQLVESGGGVVQPGRSLRLSCAASGFAFNNFAMHWVRQAPGKGLEWVAVVSYDGTSPYYADSVKGRFTISRDNSKNTLYLQMNSLRAEDTAVYYCARGLGSGSYSWIGYFYAMDVWGQGTTVTVSS VL: QSALTQPASVSGSPGQSITISCTGTSSDVGGYVYVSWYQQHPGKAPKLMIYDVSNRPSGVSNRFSGSKSGNTASLTISGLQAEDEADYYCISYTDRNTVVFGGGTKLTVL",Kd,biot-RSV-F wt,1.46 nM
same,"IC50 (ng/ml), MPV A GFP neutralization",[1],> 2000 ng/mL
same,"IC50 (ng/ml), RSV B GFP neutralization",[2],1.14 ng/mL
same,"IC50 (ng/ml), RSV A GFP neutralization",[3],1.27 ng/mL
"MPH12-v34 (VH-FRGL-S63A/VL-FRGL-D25S) (antibody, V domains shown) VH: QVQLVESGGGLVKPGGSLRLSCAASGFTFSGFYMKWIRQAPGKGLEWVSSISASGSYTNYADAVEGRFTISRDNAKNSLYLQMNSLRAEDTAVYYCARGDSYCGASACHGEFFHKWGQGTLVTVSS VL: QSVLTQPPSVSGAPGQRVTISCTGSSSNIGADFDVHWYQQLPGTAPKLLIYGNINRPSGVPDRFSGSKSGTSASLAITGLQAEDEADYYCQSYDRSLHYVFGTGTKVTVL",Kd,[4],0.5 nM
same,"MPV IC50 (ng/mL), GFP-based in vitro neutralization",[5],31.9 ng/mL
same,"RSV IC 50 (ng/mL), GFP-based in vitro neutralization",[6],48.6 ng/mL
"MPH12-v35 (VH-FRGL-D62E/VL-FRGL-D25S) (antibody, V domains shown) VH: QVQLVESGGGLVKPGGSLRLSCAASGFTFSGFYMKWIRQAPGKGLEWVSSISASGSYTNYAESVEGRFTISRDNAKNSLYLQMNSLRAEDTAVYYCARGDSYCGASACHGEFFHKWGQGTLVTVSS VL: QSVLTQPPSVSGAPGQRVTISCTGSSSNIGADFDVHWYQQLPGTAPKLLIYGNINRPSGVPDRFSGSKSGTSASLAITGLQAEDEADYYCQSYDRSLHYVFGTGTKVTVL",Kd,[4],0.46 nM
same,"MPV IC50 (ng/mL), GFP-based in vitro neutralization",[5],39.9 ng/mL
same,"RSV IC 50 (ng/mL), GFP-based in vitro neutralization",[6],57.5 ng/mL
"MPK176-v4.3 (antibody, V domains shown) VH: QVQLVQSGAEVKKPGASVRVSCKASGYTLTAYGISWVRQAPGQGLEWMGWISPKHGSTHYAQRFQGRVTMTTDTSTSTAYMELRSLRPDDTAVYFCAREGVDIMAVPWYFDYWGQGTLVAVSS VL: SYVLTQPPSVSVAPGQTARISCGGNNIGSKSVHWYQQKPGQAPVVVVYDDSKRPSGIPERFSGSNSGNTATLTISGVEAGDEADYFCQVWDSATDHWVFGGGTKLTVL","IC50, neutralization of RSVA",[7],4.35 ng/mL
same,Kd,RSV-A F,0.139 nM
same,Kd,RSV-B F,0.0117 nM
same,% binding,"RSV F B, B Ref",34.2%
same,% binding,RSV F B K68N-N201S,60.4%
same,% binding,RSV F B N208S,61.2%
same,% binding,RSV F B S443P,29.8%
same,% binding,RSV F B K68N-N208S,59.3%
same,% binding,RSV F B N201S,60.6%
"MPK130 (antibody, V domains shown) VH: EVQLVESGGGLVKPGGSLTLSCEASGFSISGYYMIWVRQAPGKGLEWVSSISASDTYIDYAVSVQGRFTISRHNTKNSLYLQMSSLRVEDTGVYYCTREKVPSPGPFDCWGQGTLVTVSS VL: QSVLTQPPSVSGAPGQRITISCTGTSSNIGAGYDVHWYQHLPGAAPRLLIYVNTNRPSGVPDRFSGARSGTSASLAITGLQAEDEADYYCQSYDRSLGGWAFGEGTKVTVL",MPV D280 Neutralization - IC50,[8],4.3 ng/mL
same,RSV Neutralization - IC50,[9],20.6 ng/mL
"MPK204 (antibody, V domains shown) VH: QVQLVESGGGLVKPGGSLRLSCEASGLSLSGYYMIWIRQAPGKGLEWISSISSSSNYIDYADSVKGRFTISRHNGQNTLYLQMNSLRVEDTAVYYCATEQTPSPGPFDLWGQGTLVTVSS VL: QSVLTQPPSVSGAPGQRVTISCTGTSSNIGTGYDVHWYQQFPGTSPKLLIYRNTNRPSGVPDRFSGSKSGSSASLAIAGLQAEDEADYYCQSYDRSVSGWVFGGGTKLTVL",MPV D280 Neutralization - IC50,[8],6 ng/mL
same,RSV Neutralization - IC50,[9],12.1 ng/mL
"MPK133 (antibody, V domains shown) VH: QVQLVQSGGGLVKPGGSLRLSCAASEFSFSGYFMIWIRQAPGKGLEWISYISGSSTYTNYADSVKGRFTISRDNAQNTLYLEMNSLRAEDTGVYYCATEQVPSPGPFDLWGQGTLVTVSS VL: QSVLTQPPSVSGAPGQRVTISCTGSSSNIGAGYDVHWYQQFPGRSPTLLIYRNTNRPSGVPDRFSGSQSGSSASLAITGLQAEDEADYYCQSYDRTLSGWAFGGGTKVTVL",MPV D280 Neutralization - IC50,[8],3.5 ng/mL
same,RSV Neutralization - IC50,[9],21.1 ng/mL
"MPK146 (antibody, V domains shown) VH: QVQLVESGGGLVKPGGSLRLSCAASGFTFSGYYMIWIRQAPGKGLEWIASISGSSNYIDYADSVRGRFTISRDNARNILDLQMNSLRAGDTALYYCATEQVPSPGPFDLWGQGTLVTVSS VL: QSVLTQPPSVSGAPGQRVTISCTGSNSNLGAGYDVHWYQQFPGTSPKLLIYRNTNRPSGVPDRFAGSKSGTSASLAITGLQAEDEADYYCQSYDRSLSGWVFGGGTKLTVL",MPV D280 Neutralization - IC50,[8],5.4 ng/mL
same,RSV Neutralization - IC50,[9],16.6 ng/mL
"MPK65-v2-v1.2 (antibody, V domains shown) VH: QVPLVQSGAEVKKPGESLKISCKGSGYSFINYWIGWVRQMPGKGLEWMGVIYPFDSDTKYSPSFQGHVTISADKSSNTAYVQWSSLKASDTAMYYCARFTFGIAVVTDDVSGEGQAFEIWGQGTMVTVSS VL: QIVMMQSPATLSVSPGERATLSCRASQSVAGNLAWYQQRPGQAPRLLIYGASTRATGVPARFSGSGSETEFTLTISSLQSEDFAVYYCHQYSNLPQAFGQGTRLDIK","IC50, neutralization of RSVA",[7],4.38 ng/mL
same,Kd,RSV-A F,0.205 nM
same,Kd,RSV-B F,0.581 nM
same,% binding,"RSV F B, B Ref",56.4%
same,% binding,RSV F B K68N-N201S,30.8%
same,% binding,RSV F B N208S,0.041%
same,% binding,RSV F B S443P,33.8%
same,% binding,RSV F B K68N-N208S,0.047%
same,% binding,RSV F B N208D,0.47%
same,% binding,RSV F B N201S,35.9%
same,% binding,RSV F A G446E,25.4%
same,% binding,"RSV F A, A2 Ref",56%
same,% binding,RSV F A S443P-K445N,33.5%
same,% binding,RSV F A L203I,18%
"MPK65-v2-v3.1 (antibody, V domains shown) VH: QVPLVQSGAEVKKPGESLKISCKGSGYSFISYWIGWVRQMPGKGLEWMGVIYPFDADTKYSPSFQGHVTISADKSSNTAYVQWSSLKASDTAMYYCARFTFGIAVVTDDVSGEGQAFEIWGQGTMVTVSS VL: EIVMMQSPATLSVSPGERATLSCRASQSVAGNLAWYQQRPGQAPRLLIYGASTRATGVPARFSGSGSETEFTLTISSLQSEDFAVYYCHQYSNWPQAFGQGTRLDIK","IC50, neutralization of RSVA",[7],5.4 ng/mL
same,Kd,RSV-A F,0.192 nM
same,Kd,RSV-B F,0.639 nM
same,% binding,"RSV F B, B Ref",60.1%
same,% binding,RSV F B K68N-N201S,22.6%
same,% binding,RSV F B N208S,0.029%
same,% binding,RSV F B S443P,30.6%
same,% binding,RSV F B K68N-N208S,0.052%
same,% binding,RSV F B N208D,0.14%
same,% binding,RSV F B N201S,31.3%
"MPK158 (antibody, V domains shown) VH: EVQLVESGGGLVKPGGSLRLSCAASGFSISGFYMIWIRQAPGKGLEWISDISASSSYIDYADSVKGRFTISRDNGQNTVHLLMNNLRADDTGVYYCAREQTPSPGPFDLWGQGTLVTVST VL: QPVLTQPPSVSGAPGQRVTISCTGRSSNIGAGYDVHWYQHLPGTSPKLLIYRNSNRPSGVPDRFSGSTSGTSASLAITGLQADDEADYYCQAYDRILGGWAFGGGTKLTVL",MPV D280 Neutralization - IC50,[8],6 ng/mL
same,RSV Neutralization - IC50,[9],18.2 ng/mL
